{
  "source": "patent US6750325",
  "about": "(CELLTECH R AND D, dated 2004)",
  "binders": {"B1": {"name": "fully CDR-grafted antibody kgL221A with gH341 (kgL221A/kgH341) (antibody, V domains shown)", "VH": "QVQLVESGGGVVQPGRSLRLSCSSSGYTFTRYTMHWVRQAPGKGLEWVAYINPSRGYTNYNQKFKDRFTISRDNSKNTLFLQMDSLRPEDTGVYFCARYYDDHYCLDYWGQGTTLTVSS", "VL": "QIVMTQSPSSLSASVGDRVTITCSASSSVSYMNWYQQTPGKAPKRWIYDTSKLASGVPSRFSGSGSGTDYTFTISSLQPEDIATYYCQQWSSNPFTFGQGTKLQIT", "notes": "Expression was very low; also called kgH221A/gH341; kgH221A/kgH341"}},
  "target": "T1, CD3 antigen of the T-cell receptor-CD3 complex on human T cells (human, UniProt P07766 23-207)",
  "T1 construct": "whole, on cells; also called OKT3 antigen",
  "assay": "antigen binding assay on CD3 positive cells, COS cell supernatant (cell line not restated)",
  "protocol": "The procedure was as follows:\nHUT 78 cells (human T cell line, CD3 positive) were maintained in culture. Monolayers of HUT 78 cells were prepared onto 96 well ELISA plates using poly-L-lysine and glutaraldehyde. Samples were added to the monolayers for 1 hour at room temperature. The plates were washed gently using PBS. F(ab')_2 goat anti-human IgG Fc (HRPO conjugated) or F(ab')_2 goat anti-mouse IgG Fc (HRPO conjugated) was added as appropriate for humanised or mouse samples. Substrate was added to reveal the reaction. The negative control for the cell-based assay was chimer B72.3. […] Binding was measured by the following procedure: HPB-ALL cells were harvested from tissue culture. Cells were incubated at 4° C. for 1 hour with various dilutions of test antibody, positive control antibody, or negative control antibody. The cells were washed once and incubated at 4° C. for 1 hour with an FITC-labelled goat anti-human IgG (Fc– specific, mouse absorbed). The cells were washed twice and analysed by cytofluorography. […] Cells incubated with mock-transfected COS cell supernatant, followed by the FITC-labelled goat anti-human IgG, provided the negative control. […] The samples were incubated for 1 hour at 4° C., washed twice and analysed by cytofluorography.",
  "data": [
    {"binder": "B1", "values": [
      {"measurement": "binding result", "result": "no binding"}
    ]}
  ]
}
